Assay results taken from patent publication US20250011468A1 (Novo Nordisk, published 2025).

Legend:
[1] = target: T1, wild-type FIX with C-terminal His-tag (human, UniProt P00740 47-461); experiment: SPR (Biacore T200), His-tagged FIX captured by anti-His antibody, one-armed antibody as analyte; % of wild-type binding
T1 construct: Secreted mature FIX from expi293F cells; also called WT
Protocol: (§1) SPR analyses were carried out on Biacore 4000 or Biacore T200 instruments (Biacore AB, Uppsala, Sweden). For the experiments on the T200 instrument the following conditions were applied: measurements were conducted at a temperature of 25° C. Anti-His antibody at 25 μg/ml (R&D Systems, catalogue #MAB050) was immobilized on a CM5 sensor chip using standard amine coupling chemistry. […] at 25 nM were injected at a flow rate of 10 μl/min for 1 min and were captured via their His-tag by the immobilized anti-His antibody. Subsequently, 200 nM (with 4-fold serial dilutions), 1600 nM (with 3-fold serial dilutions), and 2000 nM (with 3-fold serial dilution) of mAb4-0004, mAb3-3279 and mAb4-0673, respectively, were injected at a flow rate of 50 μl/min for 5 min to allow for binding to captured FIX variant followed by a 10 min buffer injection allowing for dissociation of the monovalent anti-FIX antibodies. The running buffer used was 20 mM Tris, 150 mM NaCl, 5 mM CaCl₂, 0.05% Tween-20, 1 mg/ml BSA, pH 7.4. This was also used for dilution of anti-FIX antibody and FIX samples. Regeneration of the chip was achieved using 10 mM Glycine pH 2.0. Binding data were analysed according to a 1:1 model using BiaEvaluation 4.1 supplied by the manufacturer (Biacore AB, Uppsala, Sweden). A similar experimental set-up was used for the Biacore 4000 instrument.

[2] = target: FIX T335A with C-terminal His-tag (human, UniProt P00740 47-461); experiment: SPR (Biacore T200), His-tagged FIX variant captured by anti-His antibody, one-armed antibody as analyte; % of wild-type binding
Protocol: as §1
(§2) A more detailed binding analysis was conducted for residues defined as epitope residues (see example 6) using the Biacore T200 instrument.

[3] = target: FIX T340A with C-terminal His-tag (human, UniProt P00740 47-461); experiment: as above
Protocol: as §1, §2

[4] = target: FIX D332A with C-terminal His-tag (human, UniProt P00740 47-461); experiment: as above
Protocol: as §1, §2

[5] = target: FIX N346A with C-terminal His-tag (human, UniProt P00740 47-461); experiment: as above
Protocol: as §1, §2

[6] = target: FIX T343A with C-terminal His-tag (human, UniProt P00740 47-461); experiment: as above
Protocol: as §1, §2

[7] = target: FIX R333A with C-terminal His-tag (human, UniProt P00740 47-461); experiment: as above
Protocol: as §1, §2

[8] = target: FIX N346Q with C-terminal His-tag (human, UniProt P00740 47-461); experiment: as above
Protocol: as §1, §2

[9] = target: FIX K341A with C-terminal His-tag (human, UniProt P00740 47-461); experiment: as above
Protocol: as §1, §2

[10] = target: FIX S339L with C-terminal His-tag (human, UniProt P00740 47-461); experiment: as above
Protocol: as §1, §2

[11] = target: FIX A334L with C-terminal His-tag (human, UniProt P00740 47-461); experiment: as above
Protocol: as §1, §2

[12] = target: FIX R338A with C-terminal His-tag (human, UniProt P00740 47-461); experiment: as above
Protocol: as §1, §2

[13] = target: FIX L337A with C-terminal His-tag (human, UniProt P00740 47-461); experiment: as above
Protocol: as §1, §2

[14] = target: FIX T343I with C-terminal His-tag (human, UniProt P00740 47-461); experiment: as above
Protocol: as §1, §2

[15] = target: FIX K301A with C-terminal His-tag (human, UniProt P00740 47-461); experiment: as above
Protocol: as §1, §2

[16] = target: FIX K341E with C-terminal His-tag (human, UniProt P00740 47-461); experiment: as above
Protocol: as §1, §2

[17] = target: FIX D332S with C-terminal His-tag (human, UniProt P00740 47-461); experiment: as above
Protocol: as §1, §2

Chain of FIX N346A with C-terminal His-tag (P00740 other isoform, or with tags, fused parts or gaps N346A N346A limits assumed): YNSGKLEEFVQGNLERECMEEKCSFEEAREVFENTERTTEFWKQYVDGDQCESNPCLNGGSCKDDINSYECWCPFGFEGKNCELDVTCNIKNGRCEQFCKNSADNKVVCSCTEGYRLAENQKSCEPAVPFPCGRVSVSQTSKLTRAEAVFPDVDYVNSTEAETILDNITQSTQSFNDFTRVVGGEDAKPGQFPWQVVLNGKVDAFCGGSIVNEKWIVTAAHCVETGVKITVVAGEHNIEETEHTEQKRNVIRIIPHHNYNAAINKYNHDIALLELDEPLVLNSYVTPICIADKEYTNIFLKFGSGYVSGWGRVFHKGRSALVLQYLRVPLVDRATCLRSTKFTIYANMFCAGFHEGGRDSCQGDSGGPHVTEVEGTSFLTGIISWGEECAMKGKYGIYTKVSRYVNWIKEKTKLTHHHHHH
Chain of FIX T340A with C-terminal His-tag (P00740 other isoform, or with tags, fused parts or gaps T340A T340A limits assumed): as the sequence (P00740 other isoform, or with tags, fused parts or gaps N346A N346A limits assumed) above, with T340A, A346N counted along it
Chain of FIX A334L with C-terminal His-tag (P00740 other isoform, or with tags, fused parts or gaps A334L A334L limits assumed): as the sequence (P00740 other isoform, or with tags, fused parts or gaps N346A N346A limits assumed) above, with A334L, A346N counted along it
Chain of FIX K341A with C-terminal His-tag (P00740 other isoform, or with tags, fused parts or gaps K341A K341A limits assumed): as the sequence (P00740 other isoform, or with tags, fused parts or gaps N346A N346A limits assumed) above, with K341A, A346N counted along it
T1 sequence (P00740 other isoform, or with tags, fused parts or gaps limits assumed): as the sequence (P00740 other isoform, or with tags, fused parts or gaps N346A N346A limits assumed) above, with A346N counted along it
Chain of FIX R333A with C-terminal His-tag (P00740 other isoform, or with tags, fused parts or gaps R333A R333A limits assumed): as the sequence (P00740 other isoform, or with tags, fused parts or gaps N346A N346A limits assumed) above, with R333A, A346N counted along it
Chain of FIX R338A with C-terminal His-tag (P00740 other isoform, or with tags, fused parts or gaps R338A R338A limits assumed): as the sequence (P00740 other isoform, or with tags, fused parts or gaps N346A N346A limits assumed) above, with R338A, A346N counted along it
Chain of FIX S339L with C-terminal His-tag (P00740 other isoform, or with tags, fused parts or gaps S339L S339L limits assumed): as the sequence (P00740 other isoform, or with tags, fused parts or gaps N346A N346A limits assumed) above, with S339L, A346N counted along it
Chain of FIX T343I with C-terminal His-tag (P00740 other isoform, or with tags, fused parts or gaps T343I T343I limits assumed): as the sequence (P00740 other isoform, or with tags, fused parts or gaps N346A N346A limits assumed) above, with T343I, A346N counted along it
Chain of FIX T343A with C-terminal His-tag (P00740 other isoform, or with tags, fused parts or gaps T343A T343A limits assumed): as the sequence (P00740 other isoform, or with tags, fused parts or gaps N346A N346A limits assumed) above, with T343A, A346N counted along it
Chain of FIX D332A with C-terminal His-tag (P00740 other isoform, or with tags, fused parts or gaps D332A D332A limits assumed): as the sequence (P00740 other isoform, or with tags, fused parts or gaps N346A N346A limits assumed) above, with D332A, A346N counted along it
Chain of FIX T335A with C-terminal His-tag (P00740 other isoform, or with tags, fused parts or gaps T335A T335A limits assumed): as the sequence (P00740 other isoform, or with tags, fused parts or gaps N346A N346A limits assumed) above, with T335A, A346N counted along it
Chain of FIX K301A with C-terminal His-tag (P00740 other isoform, or with tags, fused parts or gaps K301A K301A limits assumed): as the sequence (P00740 other isoform, or with tags, fused parts or gaps N346A N346A limits assumed) above, with K301A, A346N counted along it
Chain of FIX K341E with C-terminal His-tag (P00740 other isoform, or with tags, fused parts or gaps K341E K341E limits assumed): as the sequence (P00740 other isoform, or with tags, fused parts or gaps N346A N346A limits assumed) above, with K341E, A346N counted along it
Chain of FIX L337A with C-terminal His-tag (P00740 other isoform, or with tags, fused parts or gaps L337A L337A limits assumed): as the sequence (P00740 other isoform, or with tags, fused parts or gaps N346A N346A limits assumed) above, with L337A, A346N counted along it
Chain of FIX N346Q with C-terminal His-tag (P00740 other isoform, or with tags, fused parts or gaps N346Q N346Q limits assumed): as the sequence (P00740 other isoform, or with tags, fused parts or gaps N346A N346A limits assumed) above, with A346Q counted along it
Chain of FIX D332S with C-terminal His-tag (P00740 other isoform, or with tags, fused parts or gaps D332S D332S limits assumed): as the sequence (P00740 other isoform, or with tags, fused parts or gaps N346A N346A limits assumed) above, with D332S, A346N counted along it

Binder | Binding (%) relative to wild-type [1] [%] | Binding (%) relative to wild-type [2] [%] | Binding (%) relative to wild-type [3] [%] | Binding (%) relative to wild-type [4] [%] | Binding (%) relative to wild-type [5] [%] | Binding (%) relative to wild-type [6] [%] | Binding (%) relative to wild-type [7] [%] | Binding (%) relative to wild-type [8] [%] | Binding (%) relative to wild-type [9] [%] | Binding (%) relative to wild-type [10] [%] | Binding (%) relative to wild-type [11] [%] | Binding (%) relative to wild-type [12] [%] | Binding (%) relative to wild-type [13] [%] | Binding (%) relative to wild-type [14] [%] | Binding (%) relative to wild-type [15] [%] | Binding (%) relative to wild-type [16] [%] | Binding (%) relative to wild-type [17] [%]
mAb4-0673 (monovalent one-armed variant of mAb0-1886) (antibody, V domains shown) VH: EVQLVQSGAEVKKPGESLRISCKGSGYSFTSYWIGWVRQMPGKGLEWMGMIDPSDSYTDYGPSFRGHVTISADKSISTAYLQWSSLKASDTAMYYCARVRIMEGAFDIWGQGTMVTVSS VL: not shown | 100 | 71 | 67 | 17 | 51 | 63 | 4 | 94 | 96 | 73 | 44 | 3 | 7 | 90 | 93 | 53 | –
mAb4-0004 (monovalent one-armed variant of mAb0-1998) (antibody, V domains shown) VH: EVQLVESGGGLVQPGRSLKLSCAASGFTFDDYAMHWVRQVPGKGLEWVSGISWNGDNIGYVDSVKGRFTISRDNAKNSLYLQLNSLRAEDTALYYCVKSYGSGSFYNAFDSWGQGTLVTVSS VL: DIQMTQSPSTLSASAGDRVTITCRASQSISSWLAWYQQKPGKAPKFLIYKASSLESGVPSRFSGSGSGTEFSLTISSLQPDDFATYYCLEYSSYIRTFGQGTKVEIK | 100 | 62 | 37 | 50 | 73 | 38 | 66 | – | 21 | 66 | 51 | 2 | 52 | 48 | 66 | 2 | 66
